Patent US20210139548A1 (published 2021)
*1 amine or outer side, *2 acyl side, *3 side chain or, on linkers, in order; H or OH if unused. Side-chain parts run from the residue outwards. The star is where a group is joined. C18 diacid = O=C(O)CCCCCCCCCCCCCCCCC(=O)*; γGlu = O=C(O)[C@H](CCC(=O)[*:2])N[*:1]; Isovaleryl = CC(C)CC(=O)*; AEEA = NCCOCCOCC(=O)O

B1: Compound 77 (peptide)
peptide: Isovaleryl-APEK([AEEA-AEEA-γGlu-C18 diacid])PEEDASEEELQRYYVELRHYYNWLTRQRY-NH2
SMILES: CC(C)CC(=O)N[C@@H](C)C(=O)N1CCC[C@H]1C(=O)N[C@@H](CCC(=O)O)C(=O)N[C@@H](CCCCNC(=O)COCCOCCNC(=O)COCCOCCNC(=O)CC[C@H](NC(=O)CCCCCCCCCCCCCCCCC(=O)O)C(=O)O)C(=O)N1CCC[C@H]1C(=O)N[C@@H](CCC(=O)O)C(=O)N[C@@H](CCC(=O)O)C(=O)N[C@@H](CC(=O)O)C(=O)N[C@@H](C)C(=O)N[C@@H](CO)C(=O)N[C@@H](CCC(=O)O)C(=O)N[C@@H](CCC(=O)O)C(=O)N[C@@H](CCC(=O)O)C(=O)N[C@@H](CC(C)C)C(=O)N[C@@H](CCC(N)=O)C(=O)N[C@@H](CCCNC(=N)N)C(=O)N[C@@H](Cc1ccc(O)cc1)C(=O)N[C@@H](Cc1ccc(O)cc1)C(=O)N[C@H](C(=O)N[C@@H](CCC(=O)O)C(=O)N[C@@H](CC(C)C)C(=O)N[C@@H](CCCNC(=N)N)C(=O)N[C@@H](Cc1c[nH]cn1)C(=O)N[C@@H](Cc1ccc(O)cc1)C(=O)N[C@@H](Cc1ccc(O)cc1)C(=O)N[C@@H](CC(N)=O)C(=O)N[C@@H](Cc1c[nH]c2ccccc12)C(=O)N[C@@H](CC(C)C)C(=O)N[C@H](C(=O)N[C@@H](CCCNC(=N)N)C(=O)N[C@@H](CCC(N)=O)C(=O)N[C@@H](CCCNC(=N)N)C(=O)N[C@@H](Cc1ccc(O)cc1)C(N)=O)[C@@H](C)O)C(C)C
B2: Compound 79 (peptide)
peptide: Isovaleryl-APEK([AEEA-AEEA-γGlu-C18 diacid])PEEEASEEELQRYYVSLRHYYNWLTRQRY-NH2
SMILES: CC(C)CC(=O)N[C@@H](C)C(=O)N1CCC[C@H]1C(=O)N[C@@H](CCC(=O)O)C(=O)N[C@@H](CCCCNC(=O)COCCOCCNC(=O)COCCOCCNC(=O)CC[C@H](NC(=O)CCCCCCCCCCCCCCCCC(=O)O)C(=O)O)C(=O)N1CCC[C@H]1C(=O)N[C@@H](CCC(=O)O)C(=O)N[C@@H](CCC(=O)O)C(=O)N[C@@H](CCC(=O)O)C(=O)N[C@@H](C)C(=O)N[C@@H](CO)C(=O)N[C@@H](CCC(=O)O)C(=O)N[C@@H](CCC(=O)O)C(=O)N[C@@H](CCC(=O)O)C(=O)N[C@@H](CC(C)C)C(=O)N[C@@H](CCC(N)=O)C(=O)N[C@@H](CCCNC(=N)N)C(=O)N[C@@H](Cc1ccc(O)cc1)C(=O)N[C@@H](Cc1ccc(O)cc1)C(=O)N[C@H](C(=O)N[C@@H](CO)C(=O)N[C@@H](CC(C)C)C(=O)N[C@@H](CCCNC(=N)N)C(=O)N[C@@H](Cc1c[nH]cn1)C(=O)N[C@@H](Cc1ccc(O)cc1)C(=O)N[C@@H](Cc1ccc(O)cc1)C(=O)N[C@@H](CC(N)=O)C(=O)N[C@@H](Cc1c[nH]c2ccccc12)C(=O)N[C@@H](CC(C)C)C(=O)N[C@H](C(=O)N[C@@H](CCCNC(=N)N)C(=O)N[C@@H](CCC(N)=O)C(=O)N[C@@H](CCCNC(=N)N)C(=O)N[C@@H](Cc1ccc(O)cc1)C(N)=O)[C@@H](C)O)C(C)C
B3: Compound 80 (peptide)
peptide: Isovaleryl-APEK([AEEA-AEEA-γGlu-C18 diacid])PEEEASPEETQRYYVSLRHYYNWLTRQRY-NH2
SMILES: CC(C)CC(=O)N[C@@H](C)C(=O)N1CCC[C@H]1C(=O)N[C@@H](CCC(=O)O)C(=O)N[C@@H](CCCCNC(=O)COCCOCCNC(=O)COCCOCCNC(=O)CC[C@H](NC(=O)CCCCCCCCCCCCCCCCC(=O)O)C(=O)O)C(=O)N1CCC[C@H]1C(=O)N[C@@H](CCC(=O)O)C(=O)N[C@@H](CCC(=O)O)C(=O)N[C@@H](CCC(=O)O)C(=O)N[C@@H](C)C(=O)N[C@@H](CO)C(=O)N1CCC[C@H]1C(=O)N[C@@H](CCC(=O)O)C(=O)N[C@@H](CCC(=O)O)C(=O)N[C@H](C(=O)N[C@@H](CCC(N)=O)C(=O)N[C@@H](CCCNC(=N)N)C(=O)N[C@@H](Cc1ccc(O)cc1)C(=O)N[C@@H](Cc1ccc(O)cc1)C(=O)N[C@H](C(=O)N[C@@H](CO)C(=O)N[C@@H](CC(C)C)C(=O)N[C@@H](CCCNC(=N)N)C(=O)N[C@@H](Cc1c[nH]cn1)C(=O)N[C@@H](Cc1ccc(O)cc1)C(=O)N[C@@H](Cc1ccc(O)cc1)C(=O)N[C@@H](CC(N)=O)C(=O)N[C@@H](Cc1c[nH]c2ccccc12)C(=O)N[C@@H](CC(C)C)C(=O)N[C@H](C(=O)N[C@@H](CCCNC(=N)N)C(=O)N[C@@H](CCC(N)=O)C(=O)N[C@@H](CCCNC(=N)N)C(=O)N[C@@H](Cc1ccc(O)cc1)C(N)=O)[C@@H](C)O)C(C)C)[C@@H](C)O
B4: Compound 85 (peptide)
peptide: Isovaleryl-APEK([AEEA-AEEA-γGlu-C18 diacid])PEEDASPEELQRYAVSLRHYYNWLTRQRY-NH2
SMILES: CC(C)CC(=O)N[C@@H](C)C(=O)N1CCC[C@H]1C(=O)N[C@@H](CCC(=O)O)C(=O)N[C@@H](CCCCNC(=O)COCCOCCNC(=O)COCCOCCNC(=O)CC[C@H](NC(=O)CCCCCCCCCCCCCCCCC(=O)O)C(=O)O)C(=O)N1CCC[C@H]1C(=O)N[C@@H](CCC(=O)O)C(=O)N[C@@H](CCC(=O)O)C(=O)N[C@@H](CC(=O)O)C(=O)N[C@@H](C)C(=O)N[C@@H](CO)C(=O)N1CCC[C@H]1C(=O)N[C@@H](CCC(=O)O)C(=O)N[C@@H](CCC(=O)O)C(=O)N[C@@H](CC(C)C)C(=O)N[C@@H](CCC(N)=O)C(=O)N[C@@H](CCCNC(=N)N)C(=O)N[C@@H](Cc1ccc(O)cc1)C(=O)N[C@@H](C)C(=O)N[C@H](C(=O)N[C@@H](CO)C(=O)N[C@@H](CC(C)C)C(=O)N[C@@H](CCCNC(=N)N)C(=O)N[C@@H](Cc1c[nH]cn1)C(=O)N[C@@H](Cc1ccc(O)cc1)C(=O)N[C@@H](Cc1ccc(O)cc1)C(=O)N[C@@H](CC(N)=O)C(=O)N[C@@H](Cc1c[nH]c2ccccc12)C(=O)N[C@@H](CC(C)C)C(=O)N[C@H](C(=O)N[C@@H](CCCNC(=N)N)C(=O)N[C@@H](CCC(N)=O)C(=O)N[C@@H](CCCNC(=N)N)C(=O)N[C@@H](Cc1ccc(O)cc1)C(N)=O)[C@@H](C)O)C(C)C
B5: Compound 86 (peptide)
peptide: Isovaleryl-APEK([AEEA-AEEA-γGlu-C18 diacid])PEADASPEELQRYEVSLRHYYNWLTRQRY-NH2
SMILES: CC(C)CC(=O)N[C@@H](C)C(=O)N1CCC[C@H]1C(=O)N[C@@H](CCC(=O)O)C(=O)N[C@@H](CCCCNC(=O)COCCOCCNC(=O)COCCOCCNC(=O)CC[C@H](NC(=O)CCCCCCCCCCCCCCCCC(=O)O)C(=O)O)C(=O)N1CCC[C@H]1C(=O)N[C@@H](CCC(=O)O)C(=O)N[C@@H](C)C(=O)N[C@@H](CC(=O)O)C(=O)N[C@@H](C)C(=O)N[C@@H](CO)C(=O)N1CCC[C@H]1C(=O)N[C@@H](CCC(=O)O)C(=O)N[C@@H](CCC(=O)O)C(=O)N[C@@H](CC(C)C)C(=O)N[C@@H](CCC(N)=O)C(=O)N[C@@H](CCCNC(=N)N)C(=O)N[C@@H](Cc1ccc(O)cc1)C(=O)N[C@@H](CCC(=O)O)C(=O)N[C@H](C(=O)N[C@@H](CO)C(=O)N[C@@H](CC(C)C)C(=O)N[C@@H](CCCNC(=N)N)C(=O)N[C@@H](Cc1c[nH]cn1)C(=O)N[C@@H](Cc1ccc(O)cc1)C(=O)N[C@@H](Cc1ccc(O)cc1)C(=O)N[C@@H](CC(N)=O)C(=O)N[C@@H](Cc1c[nH]c2ccccc12)C(=O)N[C@@H](CC(C)C)C(=O)N[C@H](C(=O)N[C@@H](CCCNC(=N)N)C(=O)N[C@@H](CCC(N)=O)C(=O)N[C@@H](CCCNC(=N)N)C(=O)N[C@@H](Cc1ccc(O)cc1)C(N)=O)[C@@H](C)O)C(C)C

target: T1, human neuropeptide Y2 receptor (human, UniProt P49146 1-381); assay: radioligand competition (125I-PYY(1-36)), hNPY2R membranes
T1 construct: whole, on cells; also called hNPY2 receptor; hNPY2-R
T1 sequence (looked up): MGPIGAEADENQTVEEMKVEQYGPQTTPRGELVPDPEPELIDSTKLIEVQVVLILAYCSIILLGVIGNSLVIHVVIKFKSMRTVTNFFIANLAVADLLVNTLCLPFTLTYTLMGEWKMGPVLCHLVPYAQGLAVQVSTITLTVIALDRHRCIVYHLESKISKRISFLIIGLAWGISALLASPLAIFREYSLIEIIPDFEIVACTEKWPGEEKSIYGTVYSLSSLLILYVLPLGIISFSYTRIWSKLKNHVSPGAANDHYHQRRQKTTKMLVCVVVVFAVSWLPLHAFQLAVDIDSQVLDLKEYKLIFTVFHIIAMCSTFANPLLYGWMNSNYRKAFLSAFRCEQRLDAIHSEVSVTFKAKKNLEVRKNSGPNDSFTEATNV
How it was run: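 Commercial human Y2 receptor membranes (0.5 μg protein/well) were incubated with peptide for 2 h at room temperature in 50 mM HEPES, 5 mM MgCl₂, 1 mM CaCl₂, pH 7.4, with 0.2% ovalbumin. Bound radioligand was separated on PEI-soaked GF/C filters and counted by scintillation, and IC₅₀ came from nonlinear sigmoidal regression.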

In order of falling Ki:
1. B3  6.96 nM
2. B1  6.17 nM
3. B2  4.52 nM
4. B4  1.56 nM
5. B5  1.19 nM
